From IntAct's records for PubMed 27458164

B1: Src-like-adapter 2 (Mus musculus), Q8R4L0 (parent)
chain: MGSLSSRGKTSSPSPSSSGPDQEPVSMQPERHKVTAVALGSFPAGEQARLSLRLGEPLTIISEDGDWWTVQSEVSGREYHMPSVYVAKVAHGWLYEGLSREKAEELLLLPGNPGGAFLIRESQTRRGCYSLSVRLSRPASWDRIRHYRIQRLDNGWLYISPRLTFPSLHALVEHYSELADGICCPLREPCVLQKLGPLPGKDTPPPVTVPTSSLNWKKLDRSLLFLEAPASGEASLLSEGLRESLSSYISLAEDPLDDA

Variants of: B1
Conditions: with flt3_human FLT3, P36888
flt3_human FLT3, P36888, sequence (P36888 whole entry): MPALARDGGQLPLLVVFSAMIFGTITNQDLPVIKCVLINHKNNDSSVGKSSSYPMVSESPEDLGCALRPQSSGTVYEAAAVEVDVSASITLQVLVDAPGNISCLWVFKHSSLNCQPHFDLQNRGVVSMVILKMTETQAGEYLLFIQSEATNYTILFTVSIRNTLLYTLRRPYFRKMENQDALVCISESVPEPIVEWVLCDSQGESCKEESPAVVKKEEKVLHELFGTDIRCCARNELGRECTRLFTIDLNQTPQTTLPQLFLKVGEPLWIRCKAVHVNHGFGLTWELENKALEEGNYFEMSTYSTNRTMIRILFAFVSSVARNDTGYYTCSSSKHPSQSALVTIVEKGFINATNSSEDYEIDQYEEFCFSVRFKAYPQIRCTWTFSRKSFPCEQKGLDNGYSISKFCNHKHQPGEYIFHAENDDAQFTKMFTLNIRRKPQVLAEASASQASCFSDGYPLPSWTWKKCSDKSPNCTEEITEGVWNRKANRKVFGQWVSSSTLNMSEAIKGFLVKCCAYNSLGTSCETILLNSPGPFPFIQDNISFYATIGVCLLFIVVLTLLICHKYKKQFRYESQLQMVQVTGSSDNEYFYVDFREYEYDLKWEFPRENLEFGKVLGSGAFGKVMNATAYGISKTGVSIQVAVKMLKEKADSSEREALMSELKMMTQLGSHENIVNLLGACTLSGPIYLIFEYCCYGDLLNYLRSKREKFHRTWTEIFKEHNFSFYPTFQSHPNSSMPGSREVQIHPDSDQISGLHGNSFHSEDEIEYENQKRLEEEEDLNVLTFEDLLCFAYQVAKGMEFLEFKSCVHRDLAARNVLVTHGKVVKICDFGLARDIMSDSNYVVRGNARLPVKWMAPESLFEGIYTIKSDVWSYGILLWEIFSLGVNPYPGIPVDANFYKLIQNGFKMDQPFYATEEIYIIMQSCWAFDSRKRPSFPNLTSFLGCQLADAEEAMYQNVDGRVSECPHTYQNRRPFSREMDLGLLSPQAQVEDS

| Variant | effect of a mutation on the interaction |
| --- | --- |
| R120E | disrupting interaction |
